T1: Quiescin-sulfhydryl oxidase (QSOX), recombinant human (human, UniProt O00391 30-709)
T1 construct: also called Human Qsox; recombinant QSOX
T1 sequence (looked up): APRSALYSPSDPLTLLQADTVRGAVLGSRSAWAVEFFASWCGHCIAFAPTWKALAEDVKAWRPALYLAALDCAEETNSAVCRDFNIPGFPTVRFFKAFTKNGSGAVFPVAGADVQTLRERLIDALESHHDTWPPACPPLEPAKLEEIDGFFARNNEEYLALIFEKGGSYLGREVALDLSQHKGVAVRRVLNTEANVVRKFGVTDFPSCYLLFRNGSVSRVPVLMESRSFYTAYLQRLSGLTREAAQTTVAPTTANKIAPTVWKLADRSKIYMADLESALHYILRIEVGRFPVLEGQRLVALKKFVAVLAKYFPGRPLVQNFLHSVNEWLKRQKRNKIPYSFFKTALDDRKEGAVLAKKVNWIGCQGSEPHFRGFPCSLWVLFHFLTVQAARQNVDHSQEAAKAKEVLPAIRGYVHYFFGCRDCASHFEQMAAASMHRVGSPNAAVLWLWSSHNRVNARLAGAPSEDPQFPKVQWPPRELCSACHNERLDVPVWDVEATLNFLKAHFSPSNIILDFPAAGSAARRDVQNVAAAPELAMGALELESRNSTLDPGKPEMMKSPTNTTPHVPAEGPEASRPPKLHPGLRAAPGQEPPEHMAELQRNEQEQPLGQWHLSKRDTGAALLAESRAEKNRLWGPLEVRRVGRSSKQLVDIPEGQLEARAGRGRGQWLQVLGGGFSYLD

B1: recombinant full-length human PrP, HuPrP(23-231) (natural protein)
chain: not shown
B2: recombinant full-length mouse PrP, MoPrP(23-230) (natural protein)
chain: not shown
notes: also called full-length moPrP (PrP23-231, in the abstract)

Target: T1, Quiescin-sulfhydryl oxidase (QSOX), …
Assay: SPR; Biacore 3000; […]; 30 ul/min in PBS, 0.05% Tween 20, 3 mM EDTA at 25°C; 1:1 Langmuir model; […]
Conditions: both partners purified

Binder	Kd	koff	kon
B1	1.7 nM	2e-05 s⁻¹	11800 M⁻¹ s⁻¹
B2	2 nM	6.81e-05 s⁻¹	33400 M⁻¹ s⁻¹

Source: article PMC5270677, “Quiescin-sulfhydryl oxidase inhibits prion formation in vitro” (Aging (Albany NY), 2016)
